Experimental data taken from patent publication US20080020979A1 (WISCONSIN ALUMNI RESEARCH FOUNDATION, published 2008).
Blank lines part the entries; values can stand above or below the molecule they belong to.

How the values were obtained:
[1] = molecular target: mouse αvβ3 integrin (mouse) (UniProt P43406); experiment: cell-based or functional assay
mouse αvβ5 integrin = mouse αvβ5 integrin (mouse, UniProt P43406 31-1044; O70309 24-798); experiment: cell-based or functional assay
human αvβ3 integrin [2] = molecular target: T1, human αvβ3 integrin (human, UniProt P06756 31-1048; P05106 27-788); experiment: cell-based or functional assay
T1 sequence (P06756 31-1048, chain 1 of 2): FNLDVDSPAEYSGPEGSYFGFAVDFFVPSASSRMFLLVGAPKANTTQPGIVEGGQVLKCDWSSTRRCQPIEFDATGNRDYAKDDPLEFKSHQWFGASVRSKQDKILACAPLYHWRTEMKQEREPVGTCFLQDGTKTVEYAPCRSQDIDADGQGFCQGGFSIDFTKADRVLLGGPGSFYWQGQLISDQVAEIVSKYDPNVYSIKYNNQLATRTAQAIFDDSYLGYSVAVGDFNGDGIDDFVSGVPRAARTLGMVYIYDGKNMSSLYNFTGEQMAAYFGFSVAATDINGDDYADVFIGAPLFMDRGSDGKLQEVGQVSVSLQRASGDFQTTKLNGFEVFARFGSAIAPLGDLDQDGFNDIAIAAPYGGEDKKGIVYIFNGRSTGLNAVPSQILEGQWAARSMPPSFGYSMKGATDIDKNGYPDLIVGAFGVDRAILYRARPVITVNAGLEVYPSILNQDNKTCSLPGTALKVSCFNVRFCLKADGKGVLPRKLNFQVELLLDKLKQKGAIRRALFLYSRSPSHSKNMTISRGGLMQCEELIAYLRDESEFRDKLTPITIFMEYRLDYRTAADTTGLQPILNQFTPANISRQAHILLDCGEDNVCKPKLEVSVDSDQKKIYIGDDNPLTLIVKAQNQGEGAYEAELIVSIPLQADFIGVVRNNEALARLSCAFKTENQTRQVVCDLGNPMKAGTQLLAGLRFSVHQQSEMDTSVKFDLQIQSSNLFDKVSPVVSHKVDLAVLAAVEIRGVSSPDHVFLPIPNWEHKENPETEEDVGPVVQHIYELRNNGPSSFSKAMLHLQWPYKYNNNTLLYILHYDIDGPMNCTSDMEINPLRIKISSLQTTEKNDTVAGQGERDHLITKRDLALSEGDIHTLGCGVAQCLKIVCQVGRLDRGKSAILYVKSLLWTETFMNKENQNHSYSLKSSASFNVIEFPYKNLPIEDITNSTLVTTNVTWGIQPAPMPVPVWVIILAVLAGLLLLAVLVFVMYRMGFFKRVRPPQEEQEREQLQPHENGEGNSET
T1 sequence (P05106 27-788, chain 2 of 2): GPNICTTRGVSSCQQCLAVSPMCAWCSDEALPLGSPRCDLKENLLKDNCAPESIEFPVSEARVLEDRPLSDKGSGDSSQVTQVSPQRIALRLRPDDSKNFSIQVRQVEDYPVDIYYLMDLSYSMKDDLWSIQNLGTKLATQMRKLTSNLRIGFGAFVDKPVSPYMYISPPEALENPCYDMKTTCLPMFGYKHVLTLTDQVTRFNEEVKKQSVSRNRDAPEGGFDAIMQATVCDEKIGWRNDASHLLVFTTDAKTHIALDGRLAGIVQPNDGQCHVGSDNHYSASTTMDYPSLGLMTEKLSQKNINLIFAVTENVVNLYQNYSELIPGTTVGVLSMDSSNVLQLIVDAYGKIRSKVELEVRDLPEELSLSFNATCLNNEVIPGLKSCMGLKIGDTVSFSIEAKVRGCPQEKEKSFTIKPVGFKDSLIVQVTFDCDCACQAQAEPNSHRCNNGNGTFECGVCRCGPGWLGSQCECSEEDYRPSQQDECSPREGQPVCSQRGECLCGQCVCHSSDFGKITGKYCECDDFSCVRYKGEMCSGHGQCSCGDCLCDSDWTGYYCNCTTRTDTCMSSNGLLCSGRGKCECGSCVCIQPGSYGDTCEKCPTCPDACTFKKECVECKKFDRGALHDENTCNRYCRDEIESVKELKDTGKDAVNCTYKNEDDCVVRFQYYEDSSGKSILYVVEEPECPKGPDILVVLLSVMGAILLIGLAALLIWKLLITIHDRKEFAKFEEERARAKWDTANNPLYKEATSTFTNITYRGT

human αvβ5 integrin = human αvβ5 integrin (human, UniProt P06756 31-1048; P18084 24-799); experiment: cell-based or functional assay
Chain of human αvβ5 integrin (P06756 31-1048, chain 1 of 2): as the sequence (P06756 31-1048, chain 1 of 2) above
Chain of human αvβ5 integrin (P18084 24-799, chain 2 of 2): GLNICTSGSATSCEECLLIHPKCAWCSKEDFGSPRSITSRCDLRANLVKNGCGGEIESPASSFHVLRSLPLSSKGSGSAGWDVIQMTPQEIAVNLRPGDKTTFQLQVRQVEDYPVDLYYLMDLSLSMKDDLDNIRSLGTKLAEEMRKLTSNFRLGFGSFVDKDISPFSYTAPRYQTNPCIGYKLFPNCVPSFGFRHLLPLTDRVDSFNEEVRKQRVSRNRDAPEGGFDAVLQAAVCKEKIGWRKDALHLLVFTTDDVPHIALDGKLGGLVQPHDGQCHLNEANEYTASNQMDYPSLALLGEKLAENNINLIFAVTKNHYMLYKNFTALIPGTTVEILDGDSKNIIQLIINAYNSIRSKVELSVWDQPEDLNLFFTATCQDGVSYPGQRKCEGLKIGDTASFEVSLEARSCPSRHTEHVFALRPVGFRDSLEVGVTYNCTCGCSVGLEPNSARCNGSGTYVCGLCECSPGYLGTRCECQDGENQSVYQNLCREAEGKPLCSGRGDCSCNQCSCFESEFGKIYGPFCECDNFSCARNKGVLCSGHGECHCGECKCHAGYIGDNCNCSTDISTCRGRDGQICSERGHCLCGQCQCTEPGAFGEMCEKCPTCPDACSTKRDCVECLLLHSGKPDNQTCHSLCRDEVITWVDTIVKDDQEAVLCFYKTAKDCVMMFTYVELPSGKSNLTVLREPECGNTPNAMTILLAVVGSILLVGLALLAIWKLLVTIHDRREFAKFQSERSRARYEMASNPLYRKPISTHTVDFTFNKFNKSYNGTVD

human αvβ3 integrin [3] = molecular target: T1, human αvβ3 integrin; experiment: co-immunoprecipitation from MDA-MB-231 cells, blot for β3 subunit

Chain of mouse αvβ5 integrin (P43406 31-1044, chain 1 of 2): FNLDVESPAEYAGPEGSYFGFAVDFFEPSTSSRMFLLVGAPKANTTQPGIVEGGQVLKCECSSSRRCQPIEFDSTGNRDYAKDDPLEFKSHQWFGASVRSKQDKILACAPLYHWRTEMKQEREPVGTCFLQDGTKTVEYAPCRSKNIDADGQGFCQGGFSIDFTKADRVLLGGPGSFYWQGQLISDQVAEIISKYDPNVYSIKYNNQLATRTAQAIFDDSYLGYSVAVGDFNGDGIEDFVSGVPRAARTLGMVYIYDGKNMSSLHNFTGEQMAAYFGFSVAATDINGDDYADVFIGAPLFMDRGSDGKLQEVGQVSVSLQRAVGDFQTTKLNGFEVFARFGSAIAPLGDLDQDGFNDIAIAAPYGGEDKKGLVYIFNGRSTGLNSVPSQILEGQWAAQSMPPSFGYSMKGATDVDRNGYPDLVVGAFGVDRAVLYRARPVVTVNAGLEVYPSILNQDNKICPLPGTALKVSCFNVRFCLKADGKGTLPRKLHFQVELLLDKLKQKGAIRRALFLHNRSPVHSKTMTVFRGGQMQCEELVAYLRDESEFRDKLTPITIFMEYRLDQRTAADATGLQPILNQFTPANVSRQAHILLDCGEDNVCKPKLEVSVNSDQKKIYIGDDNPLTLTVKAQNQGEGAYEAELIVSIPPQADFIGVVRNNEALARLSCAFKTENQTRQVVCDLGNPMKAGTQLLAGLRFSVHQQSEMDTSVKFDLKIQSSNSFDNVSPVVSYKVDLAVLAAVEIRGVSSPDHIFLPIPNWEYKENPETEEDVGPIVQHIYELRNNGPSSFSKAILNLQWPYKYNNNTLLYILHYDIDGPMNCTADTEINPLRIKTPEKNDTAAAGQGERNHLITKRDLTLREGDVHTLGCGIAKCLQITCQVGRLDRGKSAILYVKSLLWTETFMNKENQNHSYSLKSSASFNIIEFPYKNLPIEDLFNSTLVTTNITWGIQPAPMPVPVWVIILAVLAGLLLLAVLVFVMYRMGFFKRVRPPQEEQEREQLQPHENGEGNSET
Chain of mouse αvβ5 integrin (O70309 24-798, chain 2 of 2): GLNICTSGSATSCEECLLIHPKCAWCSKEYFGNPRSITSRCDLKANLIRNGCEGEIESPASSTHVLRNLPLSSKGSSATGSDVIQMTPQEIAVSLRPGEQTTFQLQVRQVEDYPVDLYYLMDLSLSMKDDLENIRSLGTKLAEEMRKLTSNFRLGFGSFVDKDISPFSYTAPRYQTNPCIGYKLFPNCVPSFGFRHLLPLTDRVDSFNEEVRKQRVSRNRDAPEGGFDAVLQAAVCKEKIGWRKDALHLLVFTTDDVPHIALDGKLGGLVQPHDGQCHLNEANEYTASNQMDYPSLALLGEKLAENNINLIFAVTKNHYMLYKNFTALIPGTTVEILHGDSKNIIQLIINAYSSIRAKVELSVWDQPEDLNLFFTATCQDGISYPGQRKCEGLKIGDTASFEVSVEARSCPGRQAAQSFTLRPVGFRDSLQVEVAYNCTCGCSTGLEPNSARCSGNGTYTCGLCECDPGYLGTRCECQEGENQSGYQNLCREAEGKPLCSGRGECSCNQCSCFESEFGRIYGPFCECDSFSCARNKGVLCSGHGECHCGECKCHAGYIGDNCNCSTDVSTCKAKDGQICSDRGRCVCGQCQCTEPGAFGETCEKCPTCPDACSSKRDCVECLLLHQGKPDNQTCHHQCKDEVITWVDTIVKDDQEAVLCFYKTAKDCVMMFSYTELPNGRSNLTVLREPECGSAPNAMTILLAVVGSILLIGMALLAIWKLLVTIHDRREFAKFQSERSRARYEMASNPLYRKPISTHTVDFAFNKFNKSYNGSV

Molecule: FTSVLPAGEKPEEGEPVLHVEAEPGFTARD [SSTN88-117 (30-mer)]
fold less active, HMEC-1 attachment and spreading on VN (human αvβ3 integrin [2]): 3 fold
fold less active, HMEC-1 attachment and spreading on VN (human αvβ5 integrin): 3 fold

B1: mouse syndecan-1 mutant bearing deletion of amino acids 67-121 (receptor, UniProt P18828 23-311, looked up)
chain: QIVAVNVPPEDQDGSGDDSDNFSGSGTGALPDTLSRQTPSTWKDVTTRPRETVQLPITQRASTVRVTTAQAAVTSHPHGGMQPGLHETSAPTAPGQPDHQPPRVEGGGTSVIKEVVEDGTANQLPAGEGSGEQDFTFETSGENTAVAAVEPGLRNQPPVDEGATGASQSLLDRKEVLGGVIAGGLVGLIFAVCLVAFMLYRMKKKDEGSYSLEEPKQANGGAYQKPTKQEEFYA
notes: whole, on cells; also called mouse mutant lacking the active site
binding result (human αvβ3 integrin [3]): no binding

Molecule: STSTLPAGEGPKEGEAVVLPEVEPGLTAREQE [hSSTN 89-120 (amino acids 89-120 of the human Sdc1 sequence)]
IC50, MDA-MB-231 attachment and spreading on VN (human αvβ3 integrin [2]): 100 to 300 nM

Next, values leading:

spreading of mouse aortic endothelial cells on VN [1]: 1 µM
spreading of mouse aortic endothelial cells on VN (mouse αvβ5 integrin): 1 µM
HMEC spreading on VN (human αvβ3 integrin [2]): 5 µM
IC50, HAEC spreading on VN (human αvβ3 integrin [2]): 1000 nM
IC50, HMEC-1 spreading on VN (human αvβ3 integrin [2]): 3000 to 10000 nM
concentration that blocks endothelial cell attachment to VN altogether (human αvβ3 integrin [2]): 10 µM
percent reduction of HMEC spreading on VN at 1 µM mS1ED (human αvβ3 integrin [2]): > 80%
percent reduction of HMEC spreading on VN at 3 µM mS1ED (human αvβ3 integrin [2]): > 90%
HMEC spreading on VN (human αvβ5 integrin): 5 µM
IC50, HAEC spreading on VN (human αvβ5 integrin): 1000 nM
IC50, HMEC-1 spreading on VN (human αvβ5 integrin): 3000 to 10000 nM
concentration that blocks endothelial cell attachment to VN altogether (human αvβ5 integrin): 10 µM
percent reduction of HMEC spreading on VN at 1 µM mS1ED (human αvβ5 integrin): > 80%
percent reduction of HMEC spreading on VN at 3 µM mS1ED (human αvβ5 integrin): > 90%
Molecule: GST-mS1ED (recombinant mouse Sdc1 ectodomain, amino acids 18-251, expressed as a fusion protein with GST) (from UniProt P18828 18-251)

IC50, MDA-MB-231 attachment and spreading on VN (human αvβ3 integrin [2]): 100 to 300 nM
Molecule: ASTSTLPAGEGPKEGEAVVLPEVEPGLTAREQEA [hSSTN 88-121 (amino acids 88-121 of the human Sdc1 sequence)]

IC50, B82L fibroblast spreading on VN (mouse αvβ5 integrin): ~100 nM
IC50, HMEC-1 spreading on VN (human αvβ3 integrin [2]): ~100 nM
IC50, MDA-MB-231 spreading on VN (human αvβ3 integrin [2]): ~100 nM
fold lower concentration than mS1ED for equal inhibition, endothelial cells on VN (human αvβ3 integrin [2]): 10 fold
IC50, HMEC-1 spreading on VN (human αvβ5 integrin): ~100 nM
fold lower concentration than mS1ED for equal inhibition, endothelial cells on VN (human αvβ5 integrin): 10 fold
Molecule: SNTETAFTSVLPAGEKPEEGEPVLHVEAEPGFTARDKEKEVTTRPRETV [synstatin82-130 (SSTN82-130, 49-mer, amino acids 82-130 of mouse Sdc-1)]
